Measured values as given in patent US6875571B2, “NF-AT polypeptides and polynucleotides and screening methods for immunosuppressive agents” (The Board of Trustees of the Leland Stanford Junior …, priority 1991, dated 2005).

Columns and labels:
Format in all cases: cell-based, human
[1] = test system: IL-2 promoter; experiment: Secreted alkaline phosphatase reporter in Jurkat Tag cells, IL-2 reporter; settings: transfection, 1 uM ionomycin plus 20 ng/ml PMA
Description: (§1) Jurkat Tag cells were transfected with vector plasmid (control) or with the dominant negative NF-ATc plasmid, plus the indicated secreted alkaline phosphatase reporter plasmid. Transfected cells were transferred to fresh culture medium 24 hours after transfection and secreted alkaline phosphatase activity was measured (Clipstone and Crabtree (1992) Nature 357: 695-698) 16 to 24 hours later, after stimulation with 1 uM ionomycin plus 20 ng/ml PMA (NF-AT and IL-2 reporters), 20 ng/ml PMA alone (AP-1 reporter) or no stimulation (RSV reporter). Bars indicate, secreted alkaline phosphatase activity from cells transfected with the dominant negative NF-ATc as a percentage of the activity from cells transfected in parallel with control plasmid, and represent data obtained from (n) independent transfections. The dominant negative NF-ATc consists of a carboxy terminal truncation of the epitope tagged NF-ATc expression plasmid extending to the PvuII site at amino acid 463.
(§2) The dominant negative NF-ATc used consists of a carboxy terminal truncation of the epitope tagged NF-ATc expression plasmid (supra) extending to the PvuII site at amino acid 463.

[2] = test system: AP-1 site; experiment: Secreted alkaline phosphatase reporter in Jurkat Tag cells, AP-1 reporter; settings: transfection, 20 ng/ml PMA alone
Description: as §1, §2

[3] = test system: RSV promoter and enhancer; experiment: Secreted alkaline phosphatase reporter in Jurkat Tag cells, RSV reporter; settings: transfection, no stimulation
Description: as §1, §2

[4] = test system: NF-AT site; experiment: Secreted alkaline phosphatase reporter in Jurkat Tag cells, NF-AT reporter; settings: transfection, 1 uM ionomycin plus 20 ng/ml PMA
Description: as §1, §2

B1: dominant negative NF-ATc: carboxy terminal truncation of the epitope tagged NF-ATc expression plasmid extending to the PvuII site at amino acid 463 (protein, UniProt Q13469 1-463, looked up, fragment)
chain: MNAPERQPQPDGGDAPGHEPGGSPQDELDFSILFDYEYLNPNEEEPNAHKVASPPSGPAYPDDVLDYGLKPYSPLASLSGEPPGRFGEPDRVGPQKFLSAAKPAGASGLSPRIEITPSHELIQAVGPLRMRDAGLLVEQPPLAGVAASPRFTLPVPGFEGYREPLCLSPASSGSSASFISDTFSPYTSPCVSPNNGGPDDLCPQFQNIPAHYSPRTSPIMSPRTSLAEDSCLGRHSPVPRPASRSSSPGAKRRHSCAEALVALPPGASPQRSRSPSPQPSSHVAPQDHGSPAGYPPVAGSAVIMDALNSLATDSPCGIPPKMWKTSPDPSPVSAAPSKAGLPRHIYPAVEFLGPCEQGERRNSAPESILLVPPTWPKPLVPAIPICSIPVTASLPPLEWPLSSQSGSYELRIEVQPKPHHRAHYETEGSRGAVKAPTGGHPVVQLHGYMENKPLGLQIFIGTA
modifications: epitope tag
B1 was tested, and the “inhibition of IL-2 promoter function” value [1] was “more than 90%”, the “transcription directed by the AP-1 site” value [2] was “relatively unaffected” and the “transcription directed by the RSV promoter and enhancer” value [3] was “relatively unaffected”. For the same molecule, the “inhibition of transcription directed by the NF-AT site” value [4] was “more than 90%”.
